In this assay the target is human calcium sensitive potassium channel α subunit (human Slowpoke α) (human), Q12791. The experiment in a line: cell-based or functional assay.
Sequence of human calcium sensitive potassium channel α subunit (human Slowpoke α) (human), Q12791 (Q12791 whole entry): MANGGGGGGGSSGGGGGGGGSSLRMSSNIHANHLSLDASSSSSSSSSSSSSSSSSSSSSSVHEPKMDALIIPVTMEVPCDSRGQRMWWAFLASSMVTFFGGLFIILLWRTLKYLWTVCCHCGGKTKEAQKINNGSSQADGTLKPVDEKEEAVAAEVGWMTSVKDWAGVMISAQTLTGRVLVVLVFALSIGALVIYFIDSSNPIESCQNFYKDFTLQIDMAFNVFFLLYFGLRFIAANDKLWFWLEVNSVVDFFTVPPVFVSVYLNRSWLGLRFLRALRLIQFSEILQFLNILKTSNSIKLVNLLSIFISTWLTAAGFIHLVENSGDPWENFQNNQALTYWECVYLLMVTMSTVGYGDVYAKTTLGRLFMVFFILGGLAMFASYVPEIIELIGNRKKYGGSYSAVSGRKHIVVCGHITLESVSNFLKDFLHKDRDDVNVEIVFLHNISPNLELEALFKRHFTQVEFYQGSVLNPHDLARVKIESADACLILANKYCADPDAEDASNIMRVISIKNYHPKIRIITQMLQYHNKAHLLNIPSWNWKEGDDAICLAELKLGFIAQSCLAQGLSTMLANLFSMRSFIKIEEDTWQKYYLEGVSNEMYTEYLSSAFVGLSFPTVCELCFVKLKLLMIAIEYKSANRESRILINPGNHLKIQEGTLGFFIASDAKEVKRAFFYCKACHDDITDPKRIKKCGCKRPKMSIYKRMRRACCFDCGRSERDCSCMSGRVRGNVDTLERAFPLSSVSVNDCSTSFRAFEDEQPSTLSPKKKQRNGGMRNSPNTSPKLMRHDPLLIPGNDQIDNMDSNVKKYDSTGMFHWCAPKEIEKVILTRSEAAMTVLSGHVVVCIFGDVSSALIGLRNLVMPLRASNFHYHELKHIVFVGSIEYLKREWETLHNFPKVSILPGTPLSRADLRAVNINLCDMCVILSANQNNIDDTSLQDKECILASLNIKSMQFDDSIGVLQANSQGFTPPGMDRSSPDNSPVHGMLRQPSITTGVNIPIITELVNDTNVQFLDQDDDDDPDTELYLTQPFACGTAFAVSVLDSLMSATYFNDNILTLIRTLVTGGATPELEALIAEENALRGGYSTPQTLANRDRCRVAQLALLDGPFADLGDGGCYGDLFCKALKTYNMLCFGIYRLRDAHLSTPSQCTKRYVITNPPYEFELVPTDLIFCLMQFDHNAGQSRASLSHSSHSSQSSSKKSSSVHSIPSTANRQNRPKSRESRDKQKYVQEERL

B1: human calcium sensitive potassium channel β3c subunit, Q9NPA1 23-279 (protein)
chain: MFPLLYELTAVSPSPFPQRTAFPASGKKRETDYSDGDPLDVHKRLPSSTGEDRAVMLGFAMMGFSVLMFFLLGTTILKPFMLSIQREESTCTAIHTDIMDDWLDCAFTCGVHCHGQGKYPCLQVFVNLSHPGQKALLHYNEEAVQINPKCFYTPKCHQDRSDLLNSALDIKEFFDHKNGTPFSCFYSPASQSEDVILIKKYDQMAIFHCLFWPSLTLLGGALIVGMVRLTQHLSLLCEKYSTVVRDEVGGKVPYIEQHQFKLCIMRRSKGRAEKS
As for B1, the V1/2 (half-maximal activation voltage, Boltzmann fit, inside-out patches, 30 µM Ca2+) was 20 mV and the τinact (inactivation time constant at 80 mV with 30 µM intracellular Ca2+) was in the range of 30 to 40 ms.

B2: human calcium sensitive potassium channel β3a subunit, Q9NPA1 23-279 (protein)
chain: MQPFSIPVQITLQGSRRRQGRTAFPASGKKRETDYSDGDPLDVHKRLPSSTGEDRAVMLGFAMMGFSVLMFFLLGTTILKPFMLSIQREESTCTAIHTDIMDDWLDCAFTCGVHCHGQGKYPCLQVFVNLSHPGQKALLHYNEEAVQINPKCFYTPKCHQDRSDLLNSALDIKEFFDHKNGTPFSCFYSPASQSEDVILIKKYDQMAIFHCLFWPSLTLLGGALIVGMVRLTQHLSLLCEKYSTVVRDEVGGKVPYIEQHQFKLCIMRRSKGRAEKS
For B2, the V1/2 (half-maximal activation voltage, Boltzmann fit, inside-out patches, 30 µM Ca2+) came to 45.4 mV and the τinact (inactivation time constant at 80 mV with 30 µM intracellular Ca2+) is 30 to 40 ms.

B3: human calcium sensitive potassium channel β2 subunit, Q9Y691 1-235 (protein)
chain: MFIWTSGRTSSSYRHDEKRNIYQKIRDHDLLDKRKTVTALKAGEDRAILLGLAMMVCSIMMYFLLGITLLRSYMQSVWTEESQCTLLNASITETFNCSFSCGPDCWKLSQYPCLQVYVNLTSSGEKLLLYHTEETIKINQKCSYIPKCGKNFEESMSLVNVVMENFRKYQHFSCYSDPEGNQKSVILTKLYSSNVLFHSLFWPTCMMAGGVAIVAMVKLTQYLSLLCERIQRINR
Regarding B3, the V1/2 (half-maximal activation voltage, Boltzmann fit, inside-out patches, 30 µM Ca2+) was -55 mV; the shift in the voltage dependence of activation is 80 mV; the τinact (inactivation time constant at 80 mV with 30 µM intracellular Ca2+) was 30 to 40 ms.

Values taken from patent publication EP1475388A2.
